This passage reports Ki results from PMC3375269 (2012).

In test [1] the target is T1, Muscarinic acetylcholine receptor M1 (Homo sapiens, UniProt P11229).
T1 chain: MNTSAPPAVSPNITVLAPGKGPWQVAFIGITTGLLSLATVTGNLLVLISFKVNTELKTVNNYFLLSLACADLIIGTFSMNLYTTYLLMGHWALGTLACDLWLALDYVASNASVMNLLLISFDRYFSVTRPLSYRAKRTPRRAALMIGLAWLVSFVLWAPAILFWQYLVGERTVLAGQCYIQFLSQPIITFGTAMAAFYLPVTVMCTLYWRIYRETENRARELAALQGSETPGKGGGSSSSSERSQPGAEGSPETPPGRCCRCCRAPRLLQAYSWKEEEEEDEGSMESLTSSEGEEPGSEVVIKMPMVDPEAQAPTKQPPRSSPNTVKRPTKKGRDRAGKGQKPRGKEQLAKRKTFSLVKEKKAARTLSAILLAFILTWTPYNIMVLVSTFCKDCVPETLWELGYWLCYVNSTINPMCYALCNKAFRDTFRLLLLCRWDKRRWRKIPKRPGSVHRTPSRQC
Nature of the test: [3H]-NMS equilibrium inhibition binding.

Test [2] has as its target T2, Muscarinic acetylcholine receptor M4 (Homo sapiens, UniProt P08173).
T2 chain: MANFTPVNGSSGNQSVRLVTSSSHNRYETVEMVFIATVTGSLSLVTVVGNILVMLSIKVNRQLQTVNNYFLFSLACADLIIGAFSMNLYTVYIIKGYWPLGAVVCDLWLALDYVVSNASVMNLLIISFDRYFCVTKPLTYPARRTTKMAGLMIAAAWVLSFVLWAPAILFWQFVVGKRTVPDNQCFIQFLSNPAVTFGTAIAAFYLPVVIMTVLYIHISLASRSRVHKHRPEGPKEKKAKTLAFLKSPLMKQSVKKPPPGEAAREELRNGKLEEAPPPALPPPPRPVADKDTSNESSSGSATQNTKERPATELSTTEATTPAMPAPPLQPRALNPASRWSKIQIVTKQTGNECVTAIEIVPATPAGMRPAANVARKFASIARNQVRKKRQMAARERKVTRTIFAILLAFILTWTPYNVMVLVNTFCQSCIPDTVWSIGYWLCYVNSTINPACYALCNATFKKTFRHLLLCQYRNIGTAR
Nature of the test: [3H]-NMS equilibrium inhibition binding.

Another test has as its target T3, alpha1A-adrenoceptor (Homo sapiens, UniProt P35348).
T3 chain: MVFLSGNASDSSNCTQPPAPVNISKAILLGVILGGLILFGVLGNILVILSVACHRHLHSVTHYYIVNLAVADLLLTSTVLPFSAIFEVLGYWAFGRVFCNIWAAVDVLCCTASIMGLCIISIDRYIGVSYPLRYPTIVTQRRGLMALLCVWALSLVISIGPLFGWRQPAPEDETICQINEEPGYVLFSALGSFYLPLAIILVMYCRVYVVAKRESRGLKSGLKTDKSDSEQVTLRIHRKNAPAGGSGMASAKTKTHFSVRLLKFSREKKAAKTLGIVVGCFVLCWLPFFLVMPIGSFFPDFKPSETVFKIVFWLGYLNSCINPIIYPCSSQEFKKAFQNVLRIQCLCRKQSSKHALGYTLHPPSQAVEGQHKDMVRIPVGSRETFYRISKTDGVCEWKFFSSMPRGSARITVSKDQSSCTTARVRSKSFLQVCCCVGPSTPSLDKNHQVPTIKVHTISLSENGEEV
Nature of the test: [3H]-Prazosin equilibrium inhibition binding.

B1: Muscarinic toxin 1 (MT1) (protein)
chain: LTCVTSKSIFGITTENCPDGQNLCFKKWYYIVPRYSDITWGCAATCPKPTNVRETIRCCETDKCNE
Turning to B1, the Ki in test [1] amounted to 24 nM; in test [2], 310 nM; with alpha1A-adrenoceptor, 62 nM.

B2: Muscarinic toxin 7 (MT7) (protein)
chain: LTCVKSNSIWFPTSEDCPDGQNLCFKRWQYISPRMYDFTRGCAATCPKAEYRDVINCCGTDKCNK
As to B2, the inhibition constant Ki in test [1] is 0.034 nM; in test [2] it was 13000 nM; with alpha1A-adrenoceptor, more than 20000 nM.

What is called Ki is the equilibrium dissociation constant of an inhibitor or competing ligand from its target.
